Experimental data: patent US20240279357A1 (THERINI BIO, published 2024)
Changes are numbered by the printed parent chain. Names may count otherwise.

T1: P2 peptide comprising SEQ ID NO: 31 (human fibrin γ377-395) (human)
T1 construct: Bought (CPC Scientific 920712); also called human P2 peptide
T1 peptide: YSMKKTTMKIIPFNRLTIG

B1: VH4/VK3 (antibody, V domains shown)
VH: QVQLVQSGAEVKKPGSSVKVSCKASGYTFTSYWIHWVRQAPGQGLEWIGLIDPSDSYTNYNQKFRGRVTITVDTSTSTAYMELSSLRSEDTAVYYCASSDPTGCWGQGTTVTVSS
VL: DIVMTQSPLSLPVTPGEPASISCRSSKSLLHSSGITYLSWYLQKPGQSPQLLIYQMSNLASGVPDRFSSSGSGTDFTLKISRVEAEDVGVYYCAQNLELPLTFGQGTKLEIK
B2: VH1/VK2 (antibody, V domains shown)
VH: B1 VH with V11L, S16T, V20L, R38K, V68A, I70L, E82Q, R87T, T91S
VL: B1 VL with S7A, P8A, L9F, L11N, E17T
B3: VH1/VK4 (antibody, V domains shown)
VH: B1 VH with V11L, S16T, V20L, R38K, V68A, I70L, E82Q, R87T, T91S
VL: B1 VL with S69G
B4: VH1/VK1 (antibody, V domains shown)
VH: B1 VH with V11L, S16T, V20L, R38K, V68A, I70L, E82Q, R87T, T91S
VL: B1 VL with S7A, P8A, L9F, L11N, V13I, E17T, K79R
B5: VH1/VK3 (antibody, V domains shown)
VH: B1 VH with V11L, S16T, V20L, R38K, V68A, I70L, E82Q, R87T, T91S
VL: B1 VL
B6: VH6/VK3 (antibody, IgG1, V domains shown)
VH: B1 VH with R65Q, V72R
VL: B1 VL
notes: Expressed as IgG1
B7: VH5/VK4 (antibody, IgG1, V domains shown)
VH: B1 VH with V72R
VL: B1 VL with S69G
notes: Expressed as IgG1
B8: VH5/VK1 (antibody, IgG1, V domains shown)
VH: B1 VH with V72R
VL: B1 VL with S7A, P8A, L9F, L11N, V13I, E17T, K79R
notes: Expressed as IgG1
B9: VH5/VK3 (antibody, IgG1, V domains shown)
VH: B1 VH with V72R
VL: B1 VL
notes: Expressed as IgG1
B10: VH6/VK1 (antibody, IgG1, V domains shown)
VH: B1 VH with R65Q, V72R
VL: B1 VL with S7A, P8A, L9F, L11N, V13I, E17T, K79R
notes: Expressed as IgG1
B11: VH4/VK4 (antibody, IgG1, V domains shown)
VH: B1 VH
VL: B1 VL with S69G
notes: Expressed as IgG1
B12: VH4 C102A/VK2 (antibody, IgG1, V domains shown)
VH: B1 VH with C104A
VL: B1 VL with S7A, P8A, L9F, L11N, E17T
notes: IgG1, tested from HEK supernatant
B13: VH4 C102L/VK2 (antibody, IgG1, V domains shown)
VH: B1 VH with C104L
VL: B1 VL with S7A, P8A, L9F, L11N, E17T
notes: IgG1, tested from HEK supernatant; also called VH4-102L
B14: VH5 C102L/VK2 (antibody, IgG1, V domains shown)
VH: B1 VH with V72R, C104L
VL: B1 VL with S7A, P8A, L9F, L11N, E17T
notes: IgG1, tested from HEK supernatant; also called VH5-102L
B15: VH4 C102T/VK2 (antibody, IgG1, V domains shown)
VH: B1 VH with C104T
VL: B1 VL with S7A, P8A, L9F, L11N, E17T
notes: as for B12
B16: VH5 C102S/VK2 (antibody, IgG1, V domains shown)
VH: B1 VH with V72R, C104S
VL: B1 VL with S7A, P8A, L9F, L11N, E17T
notes: as for B12
B17: VH4 C102V/VK2 (antibody, IgG1, V domains shown)
VH: B1 VH with C104V
VL: B1 VL with S7A, P8A, L9F, L11N, E17T
notes: IgG1, tested from HEK supernatant; also called VH4-102V
B18: humanized anti-fibrin antibody variant VH5 C102G/VK2 (antibody, IgG1, V domains shown)
VH: B1 VH with V72R, C104G
VL: B1 VL with S7A, P8A, L9F, L11N, E17T
notes: IgG1, tested from HEK supernatant in the SPR assay; also called VH5 C102G/Vκ2; VH5-102G
B19: VH4 C102S/VK2 (antibody, IgG1, V domains shown)
VH: B1 VH with C104S
VL: B1 VL with S7A, P8A, L9F, L11N, E17T
notes: as for B12
B20: VH5 C102V/VK2 (antibody, IgG1, V domains shown)
VH: B1 VH with V72R, C104V
VL: B1 VL with S7A, P8A, L9F, L11N, E17T
notes: IgG1, tested from HEK supernatant; also called VH5-102V
B21: VH5 C102A/VK2 (antibody, IgG1, V domains shown)
VH: B1 VH with V72R, C104A
VL: B1 VL with S7A, P8A, L9F, L11N, E17T
notes: as for B12
B22: VH4 C102G/VK2 (antibody, IgG1, V domains shown)
VH: B1 VH with C104G
VL: B1 VL with S7A, P8A, L9F, L11N, E17T
notes: IgG1, tested from HEK supernatant; also called VH4-102G

Target: T1, P2 peptide comprising SEQ ID NO: 31 …
Assay: SPR (Biacore) single cycle, steady state fit; IgG from HEK supernatant captured, P2 peptide analyte
Experimental: FIG. 18 illustrates the procedure used for the single cycle kinetics analysis. The Biacore T200 […] instrument was used for single cycle kinetics analysis with the control software v2.0.1, and evaluation software V3.0. The anti-human capture chip was used with a running buffer consisting of HBS-P+ buffer (pH 7.4) containing 0.1% BSA at 25° C. a flow rate of 30 μl/min. Neat HEK supernatants were used as ligand and loaded to ˜1674 RU at 10 μl/min. P2 peptide comprising SEQ ID NO: 31 (CPC Scientific 920712, Lot #CS-02-00350) was the analyte for the analysis. […] Regeneration was performed with MgCl₂. Antibodies were diluted in running buffer to a final concentration of 20 μg/ml, based on concentrations assessed by Octet titre. At the start of each cycle, antibodies were loaded onto Fc2, Fc3 and Fc4 of the anti-human capture chip (GE Healthcare, Little Chalfont, UK). IgGs were captured at a flow rate of 10 μl/min to give an immobilization level (RL) of ˜ 1674 RU, the theoretical value to obtain an RMax of ˜50 RU. The surface was then allowed to stabilize. Single cycle kinetic data was obtained with P2 peptide as the analyte at a flow rate of 30 μl/min to minimize any potential mass transport limitations. […] The signal from the reference channel Fc1 (no antibody) was subtracted from that of Fc2, Fc3 and Fc4 to correct for differences in non-specific binding to a reference surface. […] The association phase for the five injections of increasing concentrations of P2 peptide was monitored for 20 seconds each time and a single dissociation phase was measured for 25 seconds following the last injection analyte. Regeneration of the anti-human capture surface was conducted using one injection of 3.8 M magnesium chloride.

Going from B1 to B2, the Kd falls from 148 µM to 96.4 µM (1.5-fold). The second binds more tightly here.

First: B3
Second: B4
The Kd of the first is 1.7-fold higher: 176 µM for the first, 104 µM for the second.

B5 and B6 are within 1.5-fold of each other in Kd: 200 µM for the first, 192 µM for the second.

Going from B7 to B8, the Kd falls from 277 µM to 173 µM (1.6-fold). The second binds more tightly here.

Going from B9 to B10, the Kd falls from 279 µM to 174 µM (1.6-fold). The second binds more tightly here.

With B11 the Kd was 157 µM.

Going from B1 to B2, the “Relative KD” value falls from 1.67 fold against VH0/VK0 to 1.09 fold against VH0/VK0.

First: B3
Second: B5
The “Relative KD” value of the first is lower: 1.98 fold against VH0/VK0 for the first, 2.25 fold against VH0/VK0 for the second.

Going from B6 to B7, the “Relative KD” value rises from 2.16 fold against VH0/VK0 to 3.12 fold against VH0/VK0.

Compared with B8, B9 is higher in “Relative KD” value: 1.95 fold against VH0/VK0 for the first, 3.15 fold against VH0/VK0 for the second.

Going from B10 to B11, the “Relative KD” value falls from 1.96 fold against VH0/VK0 to 1.77 fold against VH0/VK0.

Target: T1, P2 peptide comprising SEQ ID NO: 31 …
Assay: SPR (Biacore) single cycle, steady state affinity; IgG from HEK supernatant captured, γ377-395 peptide analyte

B12 and B13 are within 1.5-fold of each other in Kd: 72 µM for the first, 93 µM for the second.

Compared with B14, B15 is 2.9-fold lower in Kd: 140 µM for the first, 49 µM for the second.

Compared with B16, B17 is 3.3-fold lower in Kd: 110 µM for the first, 33 µM for the second.

First: B18
Second: B19
The Kd of the first is 1.7-fold lower: 39 µM for the first, 66 µM for the second. The first binds more tightly here.

First: B20
Second: B21
The Kd of the first is 2.5-fold lower: 44 µM for the first, 110 µM for the second.

B22 gave a Kd of 22 µM.

Going from B12 to B13, the “Relative KD” value rises from 1.53 fold against VH4/VK2 to 1.98 fold against VH4/VK2.

Going from B15 to B17, the “Relative KD” value falls from 1.05 fold against VH4/VK2 to 0.7 fold against VH4/VK2.

Going from B19 to B22, the “Relative KD” value falls from 1.41 fold against VH4/VK2 to 0.59 fold against VH4/VK2.

First: B14
Second: B16
The “Relative KD” value of the first is higher: 1.77 fold against VH5/VK2 for the first, 1.33 fold against VH5/VK2 for the second.

Compared with B18, B20 is higher in “Relative KD” value: 0.5 fold against VH5/VK2 for the first, 0.56 fold against VH5/VK2 for the second.

B21 was tested, and the “Relative KD” value was 1.44 fold against VH5/VK2.

Target: plasminogen-depleted human Fibrinogen (EMD/Calbiochem) (human) (UniProt P02671)
Assay: ELISA on plate-coated human fibrinogen, antibody titrated, A450

plasminogen-depleted human Fibrinogen (EMD/Calbiochem) (human), sequence (P02671 20-629 limits assumed, chain 1 of 3): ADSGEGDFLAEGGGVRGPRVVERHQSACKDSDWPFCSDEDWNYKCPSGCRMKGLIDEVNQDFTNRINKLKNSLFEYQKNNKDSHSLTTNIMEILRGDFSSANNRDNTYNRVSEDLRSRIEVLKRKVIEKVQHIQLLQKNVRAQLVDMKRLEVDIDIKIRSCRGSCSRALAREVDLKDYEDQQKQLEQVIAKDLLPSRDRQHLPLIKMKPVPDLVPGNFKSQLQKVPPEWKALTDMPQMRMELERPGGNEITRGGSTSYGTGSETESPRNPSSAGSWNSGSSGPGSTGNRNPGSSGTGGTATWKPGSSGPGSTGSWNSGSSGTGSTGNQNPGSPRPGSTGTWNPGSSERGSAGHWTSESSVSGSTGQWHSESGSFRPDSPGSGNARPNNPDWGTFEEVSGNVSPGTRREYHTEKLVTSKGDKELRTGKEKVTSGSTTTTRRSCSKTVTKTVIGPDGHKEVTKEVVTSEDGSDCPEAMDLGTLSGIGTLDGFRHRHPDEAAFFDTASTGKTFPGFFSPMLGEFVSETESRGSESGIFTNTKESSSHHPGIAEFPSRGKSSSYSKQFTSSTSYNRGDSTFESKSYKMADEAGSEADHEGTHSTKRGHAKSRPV
plasminogen-depleted human Fibrinogen (EMD/Calbiochem) (human), sequence (P02675 31-491 limits assumed, chain 2 of 3, further chain): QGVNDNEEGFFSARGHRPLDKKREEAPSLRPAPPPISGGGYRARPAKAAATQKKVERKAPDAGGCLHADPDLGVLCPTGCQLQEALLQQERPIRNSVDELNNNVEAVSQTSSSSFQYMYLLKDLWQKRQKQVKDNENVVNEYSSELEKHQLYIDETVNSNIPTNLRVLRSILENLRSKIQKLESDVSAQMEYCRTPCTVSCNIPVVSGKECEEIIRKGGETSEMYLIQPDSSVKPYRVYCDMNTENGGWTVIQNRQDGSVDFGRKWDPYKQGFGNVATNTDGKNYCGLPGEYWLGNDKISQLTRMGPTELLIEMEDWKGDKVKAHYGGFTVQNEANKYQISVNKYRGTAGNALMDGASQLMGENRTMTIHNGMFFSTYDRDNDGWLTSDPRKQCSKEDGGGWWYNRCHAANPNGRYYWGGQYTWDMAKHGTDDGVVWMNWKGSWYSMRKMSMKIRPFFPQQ
plasminogen-depleted human Fibrinogen (EMD/Calbiochem) (human), sequence (P02679 other isoform, or with tags, fused parts or gaps limits assumed, chain 3 of 3, further chain): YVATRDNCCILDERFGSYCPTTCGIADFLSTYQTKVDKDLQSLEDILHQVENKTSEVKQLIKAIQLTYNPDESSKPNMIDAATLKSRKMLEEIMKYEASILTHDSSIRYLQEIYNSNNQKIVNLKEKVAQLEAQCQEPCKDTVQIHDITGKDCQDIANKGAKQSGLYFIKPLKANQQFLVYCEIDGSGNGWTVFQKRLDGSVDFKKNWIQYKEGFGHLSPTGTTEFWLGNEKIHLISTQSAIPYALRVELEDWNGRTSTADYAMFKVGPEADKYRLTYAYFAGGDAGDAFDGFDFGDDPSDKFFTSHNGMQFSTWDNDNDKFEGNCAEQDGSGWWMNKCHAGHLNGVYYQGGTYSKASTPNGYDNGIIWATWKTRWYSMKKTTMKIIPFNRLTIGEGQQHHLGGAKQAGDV

mouse IgG2b isotype control (antibody) was tested, and the EC50 was 1.84 µM.
